Results reported in patent US20220023385A1 (Stanford University, published 2022).

T1: human FGFR1 beta (IIIc)-Fc (R&D Systems) (human, UniProt P11362-14 22-285, limits assumed)
T1 construct: Bought reagent; also called FGFR1-Fc; soluble FGFR1-Fc; not shown: Fc domain, detected with anti-Human IgG
T1 sequence (looked up): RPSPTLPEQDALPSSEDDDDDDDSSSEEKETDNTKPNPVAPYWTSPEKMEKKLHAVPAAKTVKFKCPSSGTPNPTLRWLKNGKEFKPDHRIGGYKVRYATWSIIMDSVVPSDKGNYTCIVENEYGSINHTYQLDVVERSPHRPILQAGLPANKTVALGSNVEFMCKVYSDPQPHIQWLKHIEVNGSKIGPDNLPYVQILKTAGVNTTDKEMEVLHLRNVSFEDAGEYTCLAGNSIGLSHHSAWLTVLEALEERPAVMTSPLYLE


Assays:
[1] = target: T1, human FGFR1 beta (IIIc)-Fc (R&D Systems); experiment: flow cytometry on yeast displaying the peptide, stained for c-myc and FGFR1-Fc
Protocol: FIG. 15. Non-binding of peptide artifacts to FGFR1-Fc. Yeast cells expressing RTTTS or HTTS peptides on their cell surface were incubated with 10 nM FGFR1-Fc. Cells were stained with fluorescent antibodies for expression (α-c-myc) and binding (α-FGFR1-Fc).
50,000 induced yeast cells were incubated with various concentrations of FGFR1-Fc in phosphate-buffered saline with 1 g/L BSA (PBSA) at room temperature. Cells were incubated in sufficiently large volumes to avoid ligand depletion and long enough times (typically 3 to 24 hours) to reach equilibrium. During the last 30 minutes of incubation, yeast cells were incubated with 1:2500 dilution of chicken anti-c-Myc (Invitrogen) in PBSA. Yeast were pelleted, washed, then incubated with 1:200 dilution of secondary antibodies on ice for 10 min: anti-Human IgG-FITC (Sigma Aldrich) against FGFR1-Fc and anti-chicken-IgY-PE (Santa Cruz Biotechnology) against anti-c-myc. Yeast were washed, pelleted, and resuspended in PBSA immediately before analysis by flow cytometry using EMD Millipore Guava EasyCyte. Flow cytometry data were analyzed using FlowJo (v7.6.1). Binding curves were plotted and Kd values were obtained using GraphPad Prism 6.

[2] = target: Met receptor on MDCK cells; experiment: cell-based or functional assay
Met receptor on MDCK cells, sequence (Q75ZY9 whole entry, the tested form may be a part): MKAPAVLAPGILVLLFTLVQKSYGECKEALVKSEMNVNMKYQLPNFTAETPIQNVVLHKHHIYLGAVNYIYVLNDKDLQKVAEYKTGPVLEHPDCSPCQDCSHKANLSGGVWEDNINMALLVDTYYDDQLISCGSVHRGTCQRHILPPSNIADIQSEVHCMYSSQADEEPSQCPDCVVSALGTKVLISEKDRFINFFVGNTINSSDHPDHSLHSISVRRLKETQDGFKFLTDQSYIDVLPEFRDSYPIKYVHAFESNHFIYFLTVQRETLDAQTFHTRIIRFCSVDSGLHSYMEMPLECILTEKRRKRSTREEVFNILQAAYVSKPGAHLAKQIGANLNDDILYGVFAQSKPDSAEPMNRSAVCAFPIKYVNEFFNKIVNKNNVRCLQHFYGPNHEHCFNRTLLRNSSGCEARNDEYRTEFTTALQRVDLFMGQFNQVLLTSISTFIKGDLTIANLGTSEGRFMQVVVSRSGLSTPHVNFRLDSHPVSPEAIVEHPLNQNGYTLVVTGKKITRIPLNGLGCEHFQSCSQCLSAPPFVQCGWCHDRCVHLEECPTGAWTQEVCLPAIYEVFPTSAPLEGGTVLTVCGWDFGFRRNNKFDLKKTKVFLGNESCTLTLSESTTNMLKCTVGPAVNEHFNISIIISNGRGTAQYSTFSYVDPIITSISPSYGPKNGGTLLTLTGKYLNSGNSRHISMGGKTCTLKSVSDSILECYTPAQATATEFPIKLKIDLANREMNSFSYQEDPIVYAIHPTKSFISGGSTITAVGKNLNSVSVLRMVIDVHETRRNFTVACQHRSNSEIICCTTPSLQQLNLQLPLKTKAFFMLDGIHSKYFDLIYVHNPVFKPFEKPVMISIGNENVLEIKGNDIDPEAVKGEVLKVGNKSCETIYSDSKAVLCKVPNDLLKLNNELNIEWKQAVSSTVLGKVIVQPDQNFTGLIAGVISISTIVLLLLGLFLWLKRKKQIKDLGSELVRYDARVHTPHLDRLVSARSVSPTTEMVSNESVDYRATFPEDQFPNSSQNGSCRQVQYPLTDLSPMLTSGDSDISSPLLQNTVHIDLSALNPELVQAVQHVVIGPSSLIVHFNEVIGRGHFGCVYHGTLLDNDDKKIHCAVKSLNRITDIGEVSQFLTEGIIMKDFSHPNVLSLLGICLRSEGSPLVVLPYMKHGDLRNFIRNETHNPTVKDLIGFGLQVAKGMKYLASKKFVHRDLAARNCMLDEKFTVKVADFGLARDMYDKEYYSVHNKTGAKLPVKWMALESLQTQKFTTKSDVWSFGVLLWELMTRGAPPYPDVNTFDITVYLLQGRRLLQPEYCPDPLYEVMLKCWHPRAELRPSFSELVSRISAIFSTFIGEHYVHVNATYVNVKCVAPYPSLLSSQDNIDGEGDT

[3] = target: T2, Met-Fc fusion protein (R&D Systems) labeled with Alexa 488 (UniProt P08581 25-932, Alexa 488 label); experiment: flow cytometry, yeast display, after heating to varying temperatures
T2 construct: Bought reagent; also called Met-Fc A488; soluble Met-Fc; not shown: Fc domain
T2 sequence (P08581 25-932 limits assumed): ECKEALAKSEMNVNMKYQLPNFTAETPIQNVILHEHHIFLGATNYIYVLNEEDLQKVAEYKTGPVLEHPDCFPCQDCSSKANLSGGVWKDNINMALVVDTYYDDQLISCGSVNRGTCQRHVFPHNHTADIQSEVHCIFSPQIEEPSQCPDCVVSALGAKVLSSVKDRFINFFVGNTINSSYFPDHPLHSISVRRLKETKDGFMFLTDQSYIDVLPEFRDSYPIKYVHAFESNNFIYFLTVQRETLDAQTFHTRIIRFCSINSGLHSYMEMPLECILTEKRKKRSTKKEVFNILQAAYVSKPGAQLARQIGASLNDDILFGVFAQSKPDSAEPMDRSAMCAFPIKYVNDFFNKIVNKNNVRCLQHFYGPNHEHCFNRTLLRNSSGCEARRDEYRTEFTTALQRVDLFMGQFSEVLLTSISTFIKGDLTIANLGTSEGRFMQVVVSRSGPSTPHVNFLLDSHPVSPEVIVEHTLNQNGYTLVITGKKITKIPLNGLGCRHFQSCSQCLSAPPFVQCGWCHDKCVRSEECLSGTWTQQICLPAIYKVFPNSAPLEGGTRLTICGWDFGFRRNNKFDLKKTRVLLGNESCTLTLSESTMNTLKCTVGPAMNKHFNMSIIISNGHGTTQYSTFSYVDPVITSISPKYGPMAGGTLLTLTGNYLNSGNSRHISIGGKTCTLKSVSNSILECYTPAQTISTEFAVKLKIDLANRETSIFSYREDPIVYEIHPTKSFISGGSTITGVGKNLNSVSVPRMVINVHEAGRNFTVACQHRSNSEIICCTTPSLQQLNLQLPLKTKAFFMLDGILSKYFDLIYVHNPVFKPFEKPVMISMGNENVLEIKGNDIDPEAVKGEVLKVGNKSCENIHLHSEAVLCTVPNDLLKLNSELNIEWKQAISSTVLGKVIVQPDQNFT

| Binder | binding result [1] | binding result [3] | also measured |
| --- | --- | --- | --- |
| HTTS (also called peptide artifact) [HTTS peptide displayed on yeast] | no binding (tested: 10 nM FGFR1-Fc) |  |  |
| Aras-4 (ligand) YAEGQGKRRNTIHEFKKSAKTTLIKIDPALRIKTEKANTADQCANRCTRSKGLPFTCKAFVFDKARKRCLWFPFNSMSSGVKKEFGHEFDLYENKAYIRDCIIGRGRNYRGTVSITKSGIKCQPWSAMIPHEHSFLPSSYRGEDLRENYCRNPRGEEGGPWCYTSDPEVRYEVCDIPQCSEVE |  |  | inhibition of HGF-induced activation of Met, concentration against M2.2 D127A or NK1 N127A [2]: ~5 fold lower concentration |
| NK1 mutant M2.1 displayed on yeast (ligand, Yeast display fusion as for m10) YAEGQRKRRNTIHEFKKSAKTTLIKIDPALKIKTEKVNTADQCANRCTRNKGLPFTCKAFVFDKARKQCLWFPFNSMSSGVKKEFGHEFDLYENKDYIRDCIIGKGRSYRGTVSITKSGIKCQPWSSMIPHEHSFLPSSYRGEDLQENYCRNPRGEEGGPWCFTSDPEVRYEVCDIPQCSEVE |  | binds |  |
| NK1 mutant M2.2 displayed on yeast (ligand, Yeast display fusion as for m10) YAEGQRKRRNTIHEFKKSAKTTLIKIDPALKIKTEKVNTADQCANRCTRNKGLPFTCKAFVFDKARKRCLWFPFNSMSSGVKKEFGHEFDLYENKDYIRDCIIGNGRSYRGTVSITKSGIKCQPWSSMIPHEHSFLPSSYRGEDLRENYCRNPRGEEGGPWCFTSDPEVRYEVCDIPQCSEVE |  | binds |  |
| RTTTS (also called peptide artifact) [RTTTS peptide displayed on yeast] | no binding (tested: 10 nM FGFR1-Fc) |  |  |
